This is an account of results in patent publication US20240400652A1.

Assay [1] addresses SARS-CoV-2 Spike protein on pseudotyped virus (SARS-CoV-2) (UniProt P0DTC2). Description: cell-based or functional assay.
The target is the same in assay [2]. Description: cell-based or functional assay. This is another data set of the same source.
The target of assay [3] is Deglycosylated SARS-CoV-2 RBD (SARS-CoV-2) (UniProt P0DTC2).

Where two headings read alike, the source gives them in different places.

In assay [1], sotrovimab (antibody) came in with an EC50, neutralization of pseudotyped virus of 0.0241 µg/mL.
Substance S309 LS (antibody) came in with an IC50, neutralization of SARS-CoV-2pp, DBT-ACE2 cells in assay [2] of 3.82 nM. In assay [1], this substance yielded an IC50, neutralization of SARS-CoV-2pp, DBT-ACE2 cells of 3.9 nM; a maximum neutralization, VSV pseudotype, 293T ACE2 cells of 34%; a maximum neutralization, VSV pseudotype, A549-ACE2-TMPRSS2 clone 5 cells of 65%; a maximum neutralization, VSV pseudotype, A549-ACE2-TMPRSS2 clone 10 cells of 42%. In assay [1], this substance gave a maximum neutralization, VSV pseudotype, Huh7 cells of 78%; a maximum neutralization, VSV pseudotype, MRC5-ACE2-TMPRSS2 cells of 45%; a maximum neutralization, VSV pseudotype, Vero E6-TMPRSS2 cells of 96%; a maximum neutralization, VSV pseudotype, Vero E6 cells of more than 99%.
In assay [3], “S306 G56A (as printed in Table 5) (antibody)” came in with a dissociation constant Kd of 0.7 nM, a koff of 0.00024 s⁻¹ and a kon of 340000 M⁻¹ s⁻¹.
